One data set deals with T1, DND1 RRM2 (human, UniProt Q8IYX4 136-227).
T1 sequence: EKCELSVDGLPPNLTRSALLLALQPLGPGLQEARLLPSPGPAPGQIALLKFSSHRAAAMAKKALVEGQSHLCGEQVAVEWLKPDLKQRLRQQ
Kind of data set: NMR titration; ITC: 100 mM potassium phosphate pH 6.6, 1 mM 2-mercaptoethanol, 25 C; NMR: 100 mM potassium phosphate pH 6.6, 1 mM DTT, 298 K (or 20 mM MES pH 6.6, 100 mM NaCl); Supplementary Fig. 3: 25 mM NaCl, 2 mM DTT, pH 6.3, 303 K. As to conditions: protein: recombinant; tags: N-terminal 6xHis, TEV-cleaved.

In data set [1] the target is T2, DND1 RRM12 (tandem RRMs) WT (human, UniProt Q8IYX4 12-235).
T2 sequence: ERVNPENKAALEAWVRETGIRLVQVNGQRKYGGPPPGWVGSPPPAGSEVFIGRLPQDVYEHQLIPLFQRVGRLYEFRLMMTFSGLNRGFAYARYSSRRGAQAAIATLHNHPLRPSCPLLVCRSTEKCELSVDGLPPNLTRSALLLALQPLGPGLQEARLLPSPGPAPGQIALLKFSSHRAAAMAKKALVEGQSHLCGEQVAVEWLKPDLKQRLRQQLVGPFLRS
Kind of data set: NMR titration; highest affinity of the three oligos; ITC: 100 mM potassium phosphate pH 6.6, 1 mM 2-mercaptoethanol, 25 C; NMR: 100 mM potassium phosphate pH 6.6, 1 mM DTT, 298 K (or 20 mM MES pH 6.6, 100 mM NaCl); Supplementary Fig. 3: 25 mM NaCl, 2 mM DTT, pH 6.3, 303 K. To be noted: protein: recombinant; tags: N-terminal 6xHis, TEV-cleaved.

A further data set concerns the target T3, DND1 extended RRM1 (human, UniProt Q8IYX4 12-139).
T3 sequence: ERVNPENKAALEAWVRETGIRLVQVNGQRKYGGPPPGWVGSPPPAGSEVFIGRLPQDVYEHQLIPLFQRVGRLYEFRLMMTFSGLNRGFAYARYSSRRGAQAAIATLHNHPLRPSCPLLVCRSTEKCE
Nature of the data set: NMR titration; ITC: 100 mM potassium phosphate pH 6.6, 1 mM 2-mercaptoethanol, 25 C; NMR: 100 mM potassium phosphate pH 6.6, 1 mM DTT, 298 K (or 20 mM MES pH 6.6, 100 mM NaCl); Supplementary Fig. 3: 25 mM NaCl, 2 mM DTT, pH 6.3, 303 K. To be noted: protein: recombinant; tags: N-terminal 6xHis, TEV-cleaved.

In data set [2] the target is T2, DND1 RRM12 (tandem RRMs) WT. Nature of the data set: ITC; N = 1.04; text and Supplementary Table 2 print 0.68; ITC: 100 mM potassium phosphate pH 6.6, 1 mM 2-mercaptoethanol, 25 C; NMR: 100 mM potassium phosphate pH 6.6, 1 mM DTT, 298 K (or 20 mM MES pH 6.6, 100 mM NaCl); Supplementary Fig. 3: 25 mM NaCl, 2 mM DTT, pH 6.3, 303 K. As to conditions: protein: recombinant; tags: N-terminal 6xHis, TEV-cleaved; label: selective 13C-ribose in some structure samples; unlabeled in titrations.

Another data set concerns the target T4, DND1 RRM12 K197A (human, UniProt Q8IYX4 12-235, K197A).
T4 sequence: T2 sequence with K186A
Kind of data set: ITC; N = 0.98; ITC: 100 mM potassium phosphate pH 6.6, 1 mM 2-mercaptoethanol, 25 C; NMR: 100 mM potassium phosphate pH 6.6, 1 mM DTT, 298 K (or 20 mM MES pH 6.6, 100 mM NaCl); Supplementary Fig. 3: 25 mM NaCl, 2 mM DTT, pH 6.3, 303 K. To be noted: protein: recombinant; tags: N-terminal 6xHis, TEV-cleaved; label: selective 13C-ribose in some structure samples; unlabeled in titrations. (Isothermal titration calorimetry measures the heat released or taken up as one component is titrated into another.)

The next data set deals with T5, DND1 RRM12 T135A (human, UniProt Q8IYX4 12-235, T135A).
T5 sequence: T2 sequence with T124A
Kind of data set: NMR titration; binding not reduced; ITC: 100 mM potassium phosphate pH 6.6, 1 mM 2-mercaptoethanol, 25 C; NMR: 100 mM potassium phosphate pH 6.6, 1 mM DTT, 298 K (or 20 mM MES pH 6.6, 100 mM NaCl); Supplementary Fig. 3: 25 mM NaCl, 2 mM DTT, pH 6.3, 303 K. To be noted: protein: recombinant; tags: N-terminal 6xHis, TEV-cleaved; label: selective 13C-ribose in some structure samples; unlabeled in titrations.

Another data set concerns the target T6, DND1 RRM12 M90A (human, UniProt Q8IYX4 12-235, M90A).
T6 sequence: T2 sequence with M79A
Kind of data set: NMR titration; ITC: 100 mM potassium phosphate pH 6.6, 1 mM 2-mercaptoethanol, 25 C; NMR: 100 mM potassium phosphate pH 6.6, 1 mM DTT, 298 K (or 20 mM MES pH 6.6, 100 mM NaCl); Supplementary Fig. 3: 25 mM NaCl, 2 mM DTT, pH 6.3, 303 K. As to conditions: protein: recombinant; tags: N-terminal 6xHis, TEV-cleaved; label: selective 13C-ribose in some structure samples; unlabeled in titrations.

In another data set the target is T7, DND1 RRM12 R98A (human, UniProt Q8IYX4 12-235, R98A).
T7 sequence: T2 sequence with R87A
Described as above. As to conditions: protein: recombinant; tags: N-terminal 6xHis, TEV-cleaved; label: selective 13C-ribose in some structure samples; unlabeled in titrations.

Where a chain is given by its changes, count along the chain named.

B1: UUAUUU (ssRNA)
RNA: UUAUUU
With B1, the binding result with DND1 RRM2 is listed as “no binding”; in data set [1] it was “binds”.

B2: UUUUUAC (ssRNA)
RNA: UUUUUAC
For B2, the binding result with DND1 extended RRM1 and with DND1 RRM2 was “no binding” in each case.

B3: CUUAUUUG (ssRNA)
RNA: CUUAUUUG
As usually defined, the Kd is the constant that tells how readily two partners part at equilibrium. For B3, the results for the Kd (in data set [2]; with DND1 RRM12 K197A) were 690 ± 30 nM and 2600 ± 100 nM, respectively. Moreover, the values for the binding result with DND1 RRM12 T135A, with DND1 RRM12 M90A and in the data set with DND1 RRM12 R98A were “binds”, “no binding” and “no binding”, respectively.

B4: UUUUUCC (ssRNA)
RNA: UUUUUCC
For B4, the binding result in the data set with DND1 extended RRM1 and with DND1 RRM2 was “no binding” each time.

Values taken from article PMC9537309, “The solution structure of Dead End bound to AU-rich RNA reveals an unusual mode of tandem RRM-RNA recognition required for mRNA regulation”.
